The values below come from patent CN109666072A (ZONHON BIOPHARMA INST INC, dated 2019).

Test [1] has as its target T1, 重组人β2-微球蛋白 (recombinant human β2-microglobulin, expressed in E. coli) (human, UniProt P61769 21-119).
T1 construct: The same in-house recombinant protein serves as immunogen, ELISA coat and Western blot sample; also called β2-MG; 人β2-MG
In words: Western blot, HRP-labelled scFv on recombinant β2-MG. On the technique in general: In western blotting, separated proteins are transferred to a membrane and probed.

The target in test [2] is T1, 重组人β2-微球蛋白 (recombinant human …). Description: indirect ELISA, hybridoma supernatant on coated recombinant human β2-MG (1 μg/mL), HRP goat anti-mouse IgG.

T1 sequence (P61769 21-119 limits assumed): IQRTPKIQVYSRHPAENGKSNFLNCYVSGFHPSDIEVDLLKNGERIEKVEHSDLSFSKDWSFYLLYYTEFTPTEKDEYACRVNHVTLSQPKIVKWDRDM

B1: 单链抗体BM17 (anti-human β2-microglobulin scFv BM17) (scFv)
scFv: QVTLKESGPGILQPSQTLSLTCSFSGFSLSTSGMGVSWIRQPSGKGLEWLAHIYWDDDKRYNPSLKSRLTISKDTSSNQVFLKITSVDTADTATYYCARVYYGYDGGFFDYWGQGTTLTVSSGGGGSGGGGSGGGGSQIVLTQSPAIMSASPGEKVTITCSASSSVSYMHWFQQKPGTSPKLWIYSTSNLASGVPARFSGSGSGTSYSLTISRMEAEDAATYYCHQRSSYPLTFGAGTKLEIK
notes: expressed in Pichia pastoris X-33; HRP-labelled in the Western blot; used as gold-labelled or coating antibody in the colloidal gold card; also called BM17-HRP; BM17-scFv
Consider B1, for which, in test [1], the binding result was “binds”.

B2: 单链抗体BM12 (anti-human β2-microglobulin scFv BM12) (scFv)
scFv: DVKLVESGGGLVKPGGSLKLSCAASGFTFGSYTMSWVRQTPEKRLEWVAAISSGGSFTYYLDSVKGRFTISRDSAKTTLYLQMGSLKSEDTAMYYCSREGGPYYGSHYYALDYWGQGTSVTVSSGGGGSGGGGSGGGGSDIQMTQSTSSLSASLGDGVTISCRASQDITNYLNWYQQRPDGAVRLLIYYTSRLHSGVPSRFSGSGSGTNYSLTISNLEQEDIATYFCQQGNTLPPTFGGGTKLEIK
notes: expressed in Pichia pastoris X-33; HRP-labelled in the Western blot; used as coating or gold-labelled antibody in the colloidal gold card; also called BM12-HRP; BM12-scFv
As for B2, the binding result in test [1] was “binds”.

B3: 杂交瘤细胞株B17所表达抗体 (antibody expressed by hybridoma cell line B17) (antibody, V domains shown)
VH: not shown
VL: QIVLTQSPAIMSASPGEKVTITCSASSSVSYMHWFQQKPGTSPKLWIYSTSNLASGVPARFSGSGSGTSYSLTISRMEAEDAATYYCHQRSSYPLTFGAGTKLEIK
notes: Mouse monoclonal antibody tested as hybridoma culture supernatant and detected with HRP goat anti-mouse IgG
As to B3, the binding result in test [2] is given as “binds”.

B4: 杂交瘤细胞株B12所表达抗体 (antibody expressed by hybridoma cell line B12) (antibody, V domains shown)
VH: DVKLVESGGGLVKPGGSLKLSCAASGFTFGSYTMSWVRQTPEKRLEWVAAISSGGSFTYYLDSVKGRFTISRDSAKTTLYLQMGSLKSEDTAMYYCSREGGPYYGSHYYALDYWGQGTSVTVSS
VL: DIQMTQSTSSLSASLGDGVTISCRASQDITNYLNWYQQRPDGAVRLLIYYTSRLHSGVPSRFSGSGSGTNYSLTISNLEQEDIATYFCQQGNTLPPTFGGGTKLEIK
notes: as for B3
For B4, in test [2], the binding result was “binds”.
